Source: the supplement of paper PMC11246515
± gives the standard deviation of the averaged measurements.

Experiment: total protein half-life in vivo (active degradation + dilution); higher = more stable protein
[1] = E. coli NCM3722 delta-clpP delta-lon delta-hslV, growth: N-lim chemostat, doubling time 6 h
[2] = E. coli NCM3722 delta-clpP, growth: N-lim chemostat, doubling time 6 h
[3] = E. coli NCM3722 delta-hslV, growth: N-lim chemostat, doubling time 6 h
[4] = E. coli NCM3722 delta-lon, growth: N-lim chemostat, doubling time 6 h
[5] = wild type E. coli NCM3722, growth: C-lim chemostat, doubling time 12 h
[6] = wild type E. coli NCM3722, growth: N-lim chemostat, doubling time 6 h
[7] = wild type E. coli NCM3722, growth: N-lim chemostat, doubling time 12 h
[8] = wild type E. coli NCM3722, growth: P-lim chemostat, doubling time 6 h
[9] = wild type E. coli NCM3722, growth: P-lim chemostat, doubling time 12 h
[10] = E. coli NCM3722 delta-smpB, growth: N-lim chemostat, doubling time 6 h
[11] = wild type E. coli NCM3722, growth: C-lim chemostat, doubling time 3 h
[12] = wild type E. coli NCM3722, growth: C-lim chemostat, doubling time 6 h

| Sequence | total protein half-life in vivo [1] | total protein half-life in vivo [2] | total protein half-life in vivo [3] | total protein half-life in vivo [4] | total protein half-life in vivo [5] | total protein half-life in vivo [6] | total protein half-life in vivo [7] | total protein half-life in vivo [8] | total protein half-life in vivo [9] | total protein half-life in vivo [10] | total protein half-life in vivo [11] | total protein half-life in vivo [12] |
| --- | --- | --- | --- | --- | --- | --- | --- | --- | --- | --- | --- | --- |
| MGRISSGGMMFKAITTVAALVIATSAMAQDDLTISSLAKGETTKAAFNQMVQGHKLPAWVMKGGTYTPAQTVTLGDETYQVMSACKPHDCGSQRIAVMWSEKSNQMTGLFSTIDEKTSQEKLTWLNVNDALSIDGKTVLFAALTGSLENHPDGFNFK [P0AD59] | 5.34 ± 0.85 h | 5.71 ± 1 h | 6.18 ± 0.25 h | 6.285 ± 0.011 h | 9.68 ± 1.2 h | 5.85 ± 0.58 h | 12.6 ± 0.36 h | 5.4 ± 0.3 h | 12.9 ± 1 h | – | – | – |
| MRRILSVLLENESGALSRVIGLFSQRGYNIESLTVAPTDDPTLSRMTIQTVGDEKVLEQIEKQLHKLVDVLRVSELGQGAHVEREIMLVKIQASGYGRDEVKRNTEIFRGQIIDVTPSLYTVQLAGTSGKLDAFLASIRDVAKIVEVARSGVVGLSRGDKIMR | 5.652 ± 0.022 h | 6.01 ± 0.31 h | 5.93 ± 0.45 h | 5.9 ± 0.55 h | 10.5 ± 0.55 h | 5.72 ± 0.27 h | 9.51 ± 0.46 h | 5.98 ± 0.1 h | 12.4 ± 0.78 h | 5.37 ± 0.21 h | 3.07 ± 0.047 h | 5.93 ± 0.13 h |
| MANPLYQKHIISINDLSRDDLNLVLATAAKLKANPQPELLKHKVIASCFFEASTRTRLSFETSMHRLGASVVGFSDSANTSLGKKGETLADTISVISTYVDAIVMRHPQEGAARLATEFSGNVPVLNAGDGSNQHPTQTLLDLFTIQETQGRLDNLHVAMVGDLKYGRTVHSLTQALAKFDGNRFYFIAPDALAMPQYILDMLDEKGIAWSLHSSIEEVMAEVDILYMTRVQKERLDPSEYANVKAQFVLRASDLHNAKANMKVLHPLPRVDEIATDVDKTPHAWYFQQAGNGIFARQALLALVLNRDLVL [P0A786] | 6.1 ± 1.2 h | 4.74 ± 0.28 h | 4.54 ± 0.5 h | 4.9 ± 0.09 h | 10.4 ± 1.8 h | 4.75 ± 0.085 h | 8.23 ± 1.4 h | 5.94 ± 0.21 h | 10.7 ± 0.62 h | 5.02 ± 0.63 h | 3.22 ± 0.23 h | 5.83 ± 0.35 h |
| MKTKLNELLEFPTPFTYKVMGQALPELVDQVVEVVQRHAPGDYTPTVKPSSKGNYHSVSITINATHIEQVETLYEELGKIDIVRMVL [P0A8J4] | 3.54 ± 1.3 h | 2.19 ± 0.44 h | 1.24 h | 2.23 ± 0.17 h | 3.05 h | 1.34 h | 1.54 h | 2.04 ± 0.064 h | 3.43 ± 0.32 h | 1.42 ± 0.17 h | 2.1 h | 2.72 h |
| MPHSYDYDAIVIGSGPGGEGAAMGLVKQGARVAVIERYQNVGGGCTHWGTIPSKALRHAVSRIIEFNQNPLYSDHSRLLRSSFADILNHADNVINQQTRMRQGFYERNHCEILQGNARFVDEHTLALDCPDGSVETLTAEKFVIACGSRPYHPTDVDFTHPRIYDSDSILSMHHEPRHVLIYGAGVIGCEYASIFRGMDVKVDLINTRDRLLAFLDQEMSDSLSYHFWNSGVVIRHNEEYEKIEGCDDGVIMHLKSGKKLKADCLLYANGRTGNTDSLALQNIGLETDSRGQLKVNSMYQTAQPHVYAVGDVIGYPSLASAAYDQGRIAAQALVKGEATAHLIEDIPTGIYTIPEISSVGKTEQQLTAMKVPYEVGRAQFKHLARAQIVGMNVGTLKILFHRETKEILGIHCFGERAAEIIHIGQAIMEQKGGGNTIEYFVNTTFNYPTMAEAYRVAALNGLNRLF | 4.47 ± 0.55 h | 3.95 ± 0.2 h | 4.17 ± 0.28 h | 3.85 ± 0.34 h | 10.5 ± 0.61 h | 4.46 ± 0.093 h | 6.87 ± 0.64 h | 6.15 ± 0.82 h | 12.2 ± 0.42 h | 4.01 ± 0.21 h | 2.74 ± 0.36 h | 6.09 ± 0.52 h |
| MRFSHRLFLLLILLLTGAPILAQEPSDVAKNVRMMVSGIVSYTRWPALSGPPKLCIFSSSRFSTALQENAATSLPYLPVIIHTQQEAMISGCNGFYFGNESPTFQMELTEQYPSKALLLIAEQNTECIIGSAFCLIIHNNDVRFAVNLDALSRSGVKVNPDVLMLARKKNDG | 3.28 ± 0.12 h | – | 2.98 ± 0.17 h | – | 6.32 h | 2.98 h | 4.75 h | 5 h | 6.03 ± 0.098 h | 3.1 h | – | > 8 h |
| MMKKFIAPLLALLVSGCQIDPYTHAPTLTSTDWYDVGMEDAISGSAIKDDDAFSDSQADRGLYLKGYAEGQKKTCQTDFTYARGLSGKSFPASCNNVENASQLHEVWQKGADENASTIRLN | 3.02 ± 0.51 h | 3.75 ± 0.11 h | 4.8 h | – | 8.56 ± 0.22 h | 3.97 h | 6.57 ± 0.068 h | 4.95 h | 10.9 h | 3.95 ± 0.7 h | 1.57 h | 5.17 ± 0.12 h |
